Numbering of substitutions follows the chain as printed. Bounds are passed on as bounds.

Holding throughout (experiment): cleavage_in_vitro
For data set [1], the target named is T1, PvuII-HF T46G (Proteus vulgaris) (UniProt P23657).
T1 sequence: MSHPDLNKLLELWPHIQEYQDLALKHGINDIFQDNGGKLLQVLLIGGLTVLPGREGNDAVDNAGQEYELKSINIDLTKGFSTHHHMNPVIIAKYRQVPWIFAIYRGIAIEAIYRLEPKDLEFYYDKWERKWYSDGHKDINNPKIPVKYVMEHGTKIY
The note with it: NEB4, 37 C.

The target of data set [2] is T2, SalI (Streptomyces albus G) (UniProt Q53608).
T2 sequence: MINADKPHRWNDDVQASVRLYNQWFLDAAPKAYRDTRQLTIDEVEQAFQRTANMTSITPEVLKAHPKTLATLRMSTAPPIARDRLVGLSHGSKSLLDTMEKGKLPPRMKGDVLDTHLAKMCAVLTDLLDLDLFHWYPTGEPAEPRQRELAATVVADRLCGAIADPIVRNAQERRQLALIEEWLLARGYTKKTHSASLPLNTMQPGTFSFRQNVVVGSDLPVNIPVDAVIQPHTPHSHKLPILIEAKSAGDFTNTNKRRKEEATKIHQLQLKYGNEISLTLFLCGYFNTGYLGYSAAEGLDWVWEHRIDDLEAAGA
The following applies: NEB3, 37 C; Table 10 prints 4.

Data set [3] deals with T3, SalI-HF R107A (Streptomyces albus G) (UniProt Q53608).
T3 sequence: T2 sequence with R107A
The note with it: NEB4, 37 C.

The subject of data set [4] is T4, AvrII-HF Y104F (Anabaena variabilis).
T4 sequence: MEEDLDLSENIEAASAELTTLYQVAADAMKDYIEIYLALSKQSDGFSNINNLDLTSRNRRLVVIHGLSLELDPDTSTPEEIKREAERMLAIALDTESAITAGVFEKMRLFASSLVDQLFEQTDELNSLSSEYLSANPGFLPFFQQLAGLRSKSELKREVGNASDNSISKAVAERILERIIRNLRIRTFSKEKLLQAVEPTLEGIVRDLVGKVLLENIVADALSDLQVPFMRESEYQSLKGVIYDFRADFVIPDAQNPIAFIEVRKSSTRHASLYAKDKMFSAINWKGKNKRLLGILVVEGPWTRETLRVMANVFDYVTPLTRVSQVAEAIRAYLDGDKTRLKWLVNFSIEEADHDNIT
The following applies: NEB4, 37 C.

In data set [5] the test system is T5, AvrII (Anabaena variabilis).
T5 sequence: T4 sequence with F104Y
The note with it: NEB4, 37 C.

Data set [6] addresses T6, BamHI(K30A/K88A) K30A/K88A (Bacillus amyloliquefaciens) (UniProt P23940).
T6 sequence: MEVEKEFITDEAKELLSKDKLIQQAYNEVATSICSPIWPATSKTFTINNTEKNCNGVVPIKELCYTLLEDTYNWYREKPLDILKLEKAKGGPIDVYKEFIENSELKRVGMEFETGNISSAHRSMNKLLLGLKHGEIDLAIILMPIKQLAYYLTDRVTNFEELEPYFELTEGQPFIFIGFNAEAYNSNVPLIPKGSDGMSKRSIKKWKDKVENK
The following applies: NEB2, 37 C.

In data set [7] the test system is T7, BspQI-HF K279P/R388F (Bacillus sphaericus).
T7 sequence: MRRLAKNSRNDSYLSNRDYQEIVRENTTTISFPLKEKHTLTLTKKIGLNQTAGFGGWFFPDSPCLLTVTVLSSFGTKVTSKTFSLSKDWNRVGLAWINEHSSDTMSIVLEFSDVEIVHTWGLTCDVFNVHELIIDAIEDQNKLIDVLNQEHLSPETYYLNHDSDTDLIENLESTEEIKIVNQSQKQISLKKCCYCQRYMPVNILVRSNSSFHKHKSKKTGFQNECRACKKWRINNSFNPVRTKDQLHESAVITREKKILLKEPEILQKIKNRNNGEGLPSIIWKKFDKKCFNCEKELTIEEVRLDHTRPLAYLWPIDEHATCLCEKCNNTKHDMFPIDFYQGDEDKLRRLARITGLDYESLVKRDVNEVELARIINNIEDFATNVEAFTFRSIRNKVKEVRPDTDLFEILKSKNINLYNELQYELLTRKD
The note with it: NEB4, 50 C.

Data set [8] has as its target T8, BamHI(K30A/K52A) K30A/K52A (Bacillus amyloliquefaciens) (UniProt P23940).
T8 sequence: T6 sequence with K52A, A88K
The following applies: NEB2, 37 C.

With pBR322, the activity (fidelity index) in data set [1] is 500.

In the case of HindIII-digested lambda DNA, the activity (fidelity index) in data set [2] is 32; in data set [3], over 2000.

Take T7 DNA: the activity (fidelity index) in data set [4] is 1000; in data set [5], 32.

In the case of pUC19, the relative cleavage activity (fraction of K30A activity) in data set [6] and in data set [8] was 0.1 each time. In data set [7], this substance came in with an activity (fidelity index) of over 4000.
